B1: PPFIA4 (parent)
chain: PGVHRRYSALREESAKDWETSPLP
B2: CDC14A (parent)
chain: GPHPKSKIENGYPLHAPEAYFPYF

Variants of: B1
Test: protein stability index of a GFP-peptide fusion (GPS, HEK-293T) (PSI 1-6); higher = more stable
Settings: c terminus: a fixed tail appended
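Further: lentivirally expressed fusions sorted by FACS into six bins by GFP to DsRed ratio, PSI derived from sequencing read proportions per bin multiplied by bin number.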

Protein stability index, by site and new letter:
P24: Y 3.45; Q 3.45; M 3.97; L 3.62; T 4.04; N 4.43; V 4.15; S 3.83

Variants of: B2
Test: as above
Settings: c terminus: a fixed tail appended

Protein stability index: each site, then its substitutions
F21: R 2.94; M 2.69; N 2.91
K7: G 2.84; Q 1.96; F 1.99; R 2.43; P 2.72
G11: F 1.72; V 2.03; I 1.64; L 2.56; H 2.17; N 2.07; E 2.52; D 2.85; P 3.76
E18: T 2.01; Q 2.31; I 1.95; R 2.69; K 2.23
Y12: E 3.56; F 1.78; W 1.86; L 2.46; M 2.74; A 2.99; R 2.58
P17: M 2.07; T 3.15; I 2.06; L 1.97; A 2.21
A16: S 2.14; F 1.82; T 2.41; N 2.25
A19: I 2.38; W 1.87; M 2.97; R 1.78; Q 2.48; C 1.8
N10: Q 2.99; V 2.06; R 1.55; L 2.19; D 1.96; Y 1.79; T 1.82; M 2.31
P4: H 2.24; C 2.27; T 2; W 2.08; M 2.33
P13: L 1.95; R 2.06; H 1.92; C 1.97; Q 2.43; S 2.22; N 2.68; T 1.96; F 1.92
I8: K 2.53; L 2.03; P 2.56; D 3.34; C 2.45; A 2.54
K5: A 2.26; W 1.92; S 2.56; Y 1.66; R 2.38
P22: H 1.6; I 3.32; A 1.61; N 1.99; R 2.5
Y23: V 2.07; C 2.77; I 2.4; R 2.97; Q 3.24; T 3
H3: V 2.41; C 2.01; E 2.46
Y20: N 2.63; K 2.79; C 2.19; E 2.76; Q 2.55; R 2.44; I 2.57
L14: K 2.4; A 2.46; E 3.65; G 2.65; Q 3.06
F24: G 3.09; I 2.92; K 3.4; H 3.12; C 2.66; E 3.61; R 2.44; D 3.37; S 2.38
S6: P 2; A 2.36; H 2.63; I 2.01; Y 1.82; N 2.21; E 2.3; K 2.58; Q 2.22; F 2.11; M 1.6
P2: N 2.1; A 2.35; D 2.29; R 2.34; V 2.41; S 2.33; L 2.29; T 2.17; C 1.67; G 1.74; W 2.45; M 2.13
H15: Y 1.68; R 2.29; L 1.76; T 2.74; Q 1.93; S 2.83; G 2.59; W 1.2
G1: V 1.89; T 2.7; D 2.51; R 1.88; A 1.82
E9: V 1.81; M 1.58; T 2.22; H 2.29; N 1.91; A 1.92; I 2.2; S 2.21; Y 1.64; L 1.76; D 1.96
